Measurements published in article PMC3107238.

Molecular target: plasma proteins (rat (endogenous in serum))
Experiment: SEC

Row | Substance | percent plasma protein binding [%]
1 | L56A mutant of sTEM8 (from UniProt Q9H6X2 38-220) (domain or fragment) | > 90
2 | soluble vWA domain of tumor endothelium marker-8 (sTEM8) (from UniProt Q9H6X2 38-220) (domain or fragment) | > 90
